Values of other authors as cited in PMC5399307.

Target: ezrin FERM (Homo sapiens) (UniProt P15311)
UniProt P15311, sequence (P15311 1-299): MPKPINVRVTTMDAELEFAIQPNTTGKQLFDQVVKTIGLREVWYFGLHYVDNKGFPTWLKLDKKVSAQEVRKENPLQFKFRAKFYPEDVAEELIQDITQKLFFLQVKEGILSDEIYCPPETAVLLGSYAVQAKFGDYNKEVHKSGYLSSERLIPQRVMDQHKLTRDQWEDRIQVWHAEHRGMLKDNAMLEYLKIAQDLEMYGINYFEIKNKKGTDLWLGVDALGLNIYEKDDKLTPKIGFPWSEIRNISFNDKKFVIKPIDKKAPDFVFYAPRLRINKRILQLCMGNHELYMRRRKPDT

## NHERF1 (from UniProt O14745)
  Kd: 51 nM
